Test results from PMC8017132.

Tests used:
[1] = target: activated coagulation factor XI (UniProt P03951); assay: stoichiometry of inhibition titration (residual protease activity); varying ratios of AAT variant to protease incubated at ambient temperature for 2 h, residual activity determined at 37°C, line regressed to zero residual activity
[2] = target: activated coagulation factor XI (UniProt P03951); assay: inhibition kinetics (residual protease activity on chromogenic substrate); pseudo-first-order, at least a 10:1 molar ratio of AAT variant to protease (5–75 nM), 37°C, discontinuous method; k2 = kobs divided by the initial AAT variant concentration
activated protein C = activated protein C (UniProt P04070); assay: as above
factor XIIa = factor XIIa (UniProt P00748); assay: as above
thrombin = thrombin (UniProt P00734); assay: as above

UniProt P03951, sequence (P03951 19-387, chain 1 of 2): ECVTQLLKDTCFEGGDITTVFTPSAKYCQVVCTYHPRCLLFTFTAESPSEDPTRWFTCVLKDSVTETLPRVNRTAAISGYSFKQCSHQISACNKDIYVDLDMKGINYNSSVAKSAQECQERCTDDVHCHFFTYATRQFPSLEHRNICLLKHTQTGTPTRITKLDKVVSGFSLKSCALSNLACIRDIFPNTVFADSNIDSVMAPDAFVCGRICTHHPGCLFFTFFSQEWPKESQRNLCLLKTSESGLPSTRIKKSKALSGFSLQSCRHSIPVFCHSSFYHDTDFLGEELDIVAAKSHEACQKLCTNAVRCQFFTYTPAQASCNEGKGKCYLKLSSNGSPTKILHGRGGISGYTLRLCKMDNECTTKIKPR
UniProt P03951, sequence (P03951 388-624, chain 2 of 2): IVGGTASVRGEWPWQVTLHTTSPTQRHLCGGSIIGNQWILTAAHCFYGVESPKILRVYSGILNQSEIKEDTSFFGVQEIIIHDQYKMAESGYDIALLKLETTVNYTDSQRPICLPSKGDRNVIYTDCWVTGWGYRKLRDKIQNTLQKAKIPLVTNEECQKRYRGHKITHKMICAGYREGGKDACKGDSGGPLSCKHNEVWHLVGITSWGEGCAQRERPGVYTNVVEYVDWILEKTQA

alpha-1 antitrypsin M358R (from UniProt P01009 25-418) (natural protein)
SI (stoichiometry of inhibition) [1]: 2.7
k2 (second-order rate constant of inhibition) [2]: 140000 M⁻¹ s⁻¹
k2 (second-order rate constant of inhibition) (activated protein C): 25000 M⁻¹ s⁻¹
k2 (second-order rate constant of inhibition) (factor XIIa): 23000 M⁻¹ s⁻¹
k2 (second-order rate constant of inhibition) (thrombin): 180000 M⁻¹ s⁻¹
